From PMC3227541

What was measured:
[1] = biological target: fluorescein-labelled single cysteine mutant of arrestin-2 (arrestin-2-S234C on cysteine-less background) (bovine) (UniProt P17870); experiment: FRET or BRET
[2] = biological target: fluorescein-labelled single cysteine mutant of arrestin-3 (arrestin-3-L101C on cysteine-less background) (bovine) (UniProt P32120); experiment: FRET or BRET
UniProt P32120, sequence (P32120 whole entry L101C, stated change not applied): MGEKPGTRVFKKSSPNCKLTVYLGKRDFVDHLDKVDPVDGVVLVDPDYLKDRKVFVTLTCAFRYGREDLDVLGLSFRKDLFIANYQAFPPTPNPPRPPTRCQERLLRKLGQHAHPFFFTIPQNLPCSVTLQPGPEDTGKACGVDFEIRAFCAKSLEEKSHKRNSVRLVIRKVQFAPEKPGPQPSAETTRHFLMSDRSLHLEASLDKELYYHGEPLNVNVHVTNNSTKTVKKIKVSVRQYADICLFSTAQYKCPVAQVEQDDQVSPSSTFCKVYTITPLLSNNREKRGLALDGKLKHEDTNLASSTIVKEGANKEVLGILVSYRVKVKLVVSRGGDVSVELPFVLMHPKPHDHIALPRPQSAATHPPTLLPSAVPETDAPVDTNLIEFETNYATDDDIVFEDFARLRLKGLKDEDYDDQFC

UniProt P17870, sequence (P17870 whole entry S234C, stated change not applied): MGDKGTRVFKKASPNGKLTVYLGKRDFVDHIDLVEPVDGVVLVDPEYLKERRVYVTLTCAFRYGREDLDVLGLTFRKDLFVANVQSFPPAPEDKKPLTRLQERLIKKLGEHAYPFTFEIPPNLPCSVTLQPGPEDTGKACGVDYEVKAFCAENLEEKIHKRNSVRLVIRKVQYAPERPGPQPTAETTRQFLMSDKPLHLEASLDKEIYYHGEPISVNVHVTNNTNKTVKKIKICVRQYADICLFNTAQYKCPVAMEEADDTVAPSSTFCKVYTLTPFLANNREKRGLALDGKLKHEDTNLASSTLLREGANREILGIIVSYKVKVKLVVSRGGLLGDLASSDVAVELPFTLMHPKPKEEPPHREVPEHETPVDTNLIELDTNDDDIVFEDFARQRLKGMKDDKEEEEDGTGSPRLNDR

Kd [1]: 6.1 µM
Kd [2]: 4.4 µM
Substance: Alexa-568-labeled JNK3α2-His (from UniProt P53779 1-464) (enzyme)
